The record followed here is IntAct's records for PubMed 17588514.

B1: Replication restart protein PriB (Escherichia coli (strain K12)), P07013 (parent)
chain: MTNRLVLSGTVCRAPLRKVSPSGIPHCQFVLEHRSVQEEAGFHRQAWCQMPVIVSGHENQAITHSITVGSRITVQGFISCHKAKNGLSKMVLHAEQIELIDSGD
partner: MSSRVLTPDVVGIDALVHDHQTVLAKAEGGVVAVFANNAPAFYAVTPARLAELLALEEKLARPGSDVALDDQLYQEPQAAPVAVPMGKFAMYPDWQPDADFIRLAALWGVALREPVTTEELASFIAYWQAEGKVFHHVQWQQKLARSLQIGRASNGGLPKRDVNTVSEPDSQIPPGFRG

This test covers variants of B1. The note with it: with dnat_ecoli dnaT.
In the case of Q45A, the “effect of a mutation on the interaction” value is “increasing interaction”.

In the case of W47A;K82A, the “effect of a mutation on the interaction” value is reported as “decreasing interaction”.
